Target: T1, recombinant LRMDA (human, UniProt A0A087WWI0 1-226)
T1 construct: synthetic gene codon-optimised for S. frugiperda; also called tag-less LRMDA; purified LRMDA; source: Sf21 insect cells (baculovirus), purified (HaloLink resin, TEV cleavage); not shown: HaloTag, N-terminal, cleaved
T1 sequence (looked up): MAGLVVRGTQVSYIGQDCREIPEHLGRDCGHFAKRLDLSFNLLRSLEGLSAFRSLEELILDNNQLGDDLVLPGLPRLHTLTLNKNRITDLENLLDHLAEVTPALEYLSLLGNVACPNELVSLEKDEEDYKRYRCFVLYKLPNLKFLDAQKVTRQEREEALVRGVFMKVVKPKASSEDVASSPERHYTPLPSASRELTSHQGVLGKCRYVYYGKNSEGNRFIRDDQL
Assay: pull-down; Retriever (0.5 µM, His-tagged VPS29) held on TALON resin; 1 µM LRMDA and/or 1 µM RAB32 added; 50 mM HEPES pH 7.2, 150 mM NaCl, 2 mM β-mercaptoethanol, 0.1% Triton X-100; 45 min at 4 °C; washes with 10 mM imidazole; LRMDA binding slightly increased in the presence of RAB32
Conditions: both partners purified

B1: recombinant RAB32 (natural protein, human, UniProt Q13637 1-225, looked up)
chain: MAGGGAGDPGLGAAAAPAPETREHLFKVLVIGELGVGKTSIIKRYVHQLFSQHYRATIGVDFALKVLNWDSRTLVRLQLWDIAGQERFGNMTRVYYKEAVGAFVVFDISRSSTFEAVLKWKSDLDSKVHLPNGSPIPAVLLANKCDQNKDSSQSPSQVDQFCKEHGFAGWFETSAKDNINIEEAARFLVEKILVNHQSFPNEENDVDKIKLDQETLRAENKSQCC
notes: RAB32, human; synthetic gene codon-optimised for S. frugiperda; also called tag-less RAB32; purified RAB32; source: Sf21 insect cells (baculovirus), purified (Glutathione Sepharose, TEV cleavage); not shown: GST, N-terminal, cleaved
B1: binds.

— paper doi:10.1101/2025.02.04.636395, “Identification of a RAB32-LRMDA-Commander membrane trafficking complex reveals the molecular mechanism of human oculocutaneous albinism type 7” (bioRxiv, 2025)
